Assay [1] has as its target T1, single chain CD94/NKG2A-Fc (CD94/NKG2A-IgG1 fusion polypeptide) (human).
T1 construct: Biotinylated in the panning and BLItz experiments; also called CD94/NKG2A polypeptide; recombinant CD94/NKG2A polypeptide; not shown: human IgG1 Fc
As to the kind of experiment: indirect ELISA, coated CD94/NKG2A-Fc. The procedure:
(§1) Binding and specificity of Fab or IgG to single chain CD94/NKG2A-Fc or single chain CD94/NKG2C-Fc were analyzed through indirect ELISA. Briefly, Fc-fused proteins were coated on a 96 well plate (Corning, 3690) at 200 ng/well (50 μL volume) in PBS for 2 hours at room temperature. Blocking was carried out with 3% BSA in PBS for overnight at 4° C. Next day, various concentration of Fab or IgG was applied to antigen coated plates and incubated for 1 hour at 25° C. After three times washing, anti-FLAG mouse antibody (M2 clone)-HRP conjugated (Sigma, A8592, 1:3000 dilution) or anti-human kappa goat antibody-HRP conjugated (Invitrogen, A18853, 1:3000 dilution) was applied to detect binding of either Fab or IgG. Same volume of TMB (Thermo, PI34028) was added as a substrate, and then enzymatic reactions were stopped by adding of 2N […].
(In an ELISA, binding on a coated surface is turned into a signal by an enzyme label.)

The target of assay [2] is T2, single chain CD94/NKG2C-Fc (human).
T2 construct: also called CD94/NKG2C polypeptide; single chain CD94/NKG2C polypeptide; not shown: Fc
T2 sequence (chain, as listed by the source): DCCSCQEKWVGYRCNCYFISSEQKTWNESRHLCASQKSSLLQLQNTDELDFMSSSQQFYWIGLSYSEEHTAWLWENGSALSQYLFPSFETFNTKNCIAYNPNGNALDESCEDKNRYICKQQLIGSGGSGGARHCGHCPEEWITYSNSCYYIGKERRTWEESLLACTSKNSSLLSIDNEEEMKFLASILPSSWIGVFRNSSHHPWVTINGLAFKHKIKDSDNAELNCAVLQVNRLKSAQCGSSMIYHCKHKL
As to the kind of experiment: indirect ELISA, coated CD94/NKG2C-Fc. The procedure:
as §1

The target in assay [3] is T1, single chain CD94/NKG2A-Fc …. As to the kind of experiment: BLItz biolayer interferometry. On the technique in general: BLI is a label-free optical method that tracks binding on a fibre tip over time.
Assay [4] addresses T3, CD94/NKG2A on the surface of primary human NK cells (human, UniProt Q13241 1-179; P26715 1-233).
T3 construct: Endogenous receptor on primary NK cells enriched from normal human PBMCs; also called intact NKG2A receptor on the surface of NK cell; cell surface NKG2A
Kind of assay: flow cytometry on primary NK cells, 10 nM antibody. Background: A flow cytometer gives signals particle by particle.
Description: For investigation of NKG2A expression level of NK cells, enriched NK cells were activated with 50 IU/mL of hIL-2 and treated with the indicated antibodies (100 nM) for 24 hours at 37° C. After incubation with antibodies, cells were washed with cold PBS, and then the cell surface NKG2A was detected using a FITC- or PE-conjugated anti-human CD159a (NKG2A) antibody.

Numbering of substitutions follows the chain as printed. In names and notes the source's numbering stands.

T1 sequence (chain, as listed by the source): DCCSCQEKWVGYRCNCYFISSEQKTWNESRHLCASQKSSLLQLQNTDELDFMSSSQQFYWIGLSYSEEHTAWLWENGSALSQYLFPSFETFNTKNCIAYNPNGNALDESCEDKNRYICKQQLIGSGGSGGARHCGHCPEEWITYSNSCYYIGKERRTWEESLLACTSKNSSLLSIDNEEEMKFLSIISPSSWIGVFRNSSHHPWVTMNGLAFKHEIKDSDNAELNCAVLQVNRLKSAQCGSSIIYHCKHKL
T3 sequence (Q13241 whole entry, chain 1 of 2): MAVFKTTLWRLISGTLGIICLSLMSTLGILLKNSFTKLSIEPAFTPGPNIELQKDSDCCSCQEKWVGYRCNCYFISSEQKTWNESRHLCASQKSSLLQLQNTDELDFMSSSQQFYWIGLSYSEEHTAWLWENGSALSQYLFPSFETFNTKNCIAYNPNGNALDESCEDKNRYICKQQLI
T3 sequence (P26715 whole entry, chain 2 of 2): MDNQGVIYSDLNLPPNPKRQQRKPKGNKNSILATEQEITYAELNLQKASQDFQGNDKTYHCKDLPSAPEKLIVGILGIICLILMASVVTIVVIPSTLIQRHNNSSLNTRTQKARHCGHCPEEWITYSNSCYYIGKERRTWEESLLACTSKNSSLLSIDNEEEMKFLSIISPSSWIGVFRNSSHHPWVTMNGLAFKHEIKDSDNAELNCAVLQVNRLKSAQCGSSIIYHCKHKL

B1: Fab Clone #1 (1B2) (Fab, V domains shown)
VH: QVQLVESGGGLVKPGGSLRLSCAASGFTFSDYYMSWIRQAPGKGLEWVSYISSSGSTIYYADSVKGRFTISRDNAKNSLYLQMNSLRAEDTAVYYCARGFYMDAWGKGTTVTVSS
VL: DIQMTQSPSSLSASVGDRVTITCRASQSISSYLNWYQQKPGKAPKLLIYAASSLQSGVPSRFSGSGSGTDFTLTISSLQPEDFGVYYCQYYGISPPFTFGPGTKVDIKR
notes: Fab from a phage library, expressed in E. coli and purified on Ni-NTA; detected in ELISA with an anti-FLAG antibody
The term EC50 denotes the concentration giving half of the maximal effect. The low end stands for a more potent agent, the high end for a less potent agent. For the molecule B1, a half-maximal effect in assay [1] (EC50) was put at 2.7 nM. The binding result in assay [2] was “no binding”.

B2: IgG Clone #1 (1B2, IgG1-LALA-PG) (antibody, V domains shown)
VH: B1 VH
VL: B1 VL
notes: Human IgG1 format with L234A, L235A and P329G (LALA-PG / AAG) in the Fc; Light chain detected with an anti-human kappa antibody; also called Clone #1 IgG; 1B2 (IgG Clone #1)
By Kd is commonly meant a measure of binding affinity in units of concentration. Read a low Kd as a tighter complex. As for B2, the Kd in assay [3] came out at 1.1 nM. Further, the binding result in assay [4] is given as “binds”.

B3: IgG Clone #2 (1B2-6, IgG1-LALA-PG) (antibody, V domains shown)
VH: B1 VH with Q1E, D31G, V48L, S49A, S53N, S56R, A75S, K76N, N77S
VL: B1 VL
notes: Human IgG1 format with L234A, L235A and P329G; also called Clone #2 IgG (anti-NKG2A)
Consider B3, for which the midpoint of the response in assay [1], the EC50, lay at 0.6 nM. Also, the binding result in assay [2] was “no binding”.

Source of the values: patent US20240415889A1 (UNIVERSITY OF PITTSBURGH OF THE COMMONWEALTH SYSTEM OF …, published 2024).
